Data published in FireProtDB (doi:10.1002/prot.340090203).
Values joined by “and” are separate entries in the source; they are usually repeats but may differ in a detail not shown here. Equal values may be shown once.

B1: Tryptophan synthase alpha chain, P0A877 (parent)
chain: MERYESLFAQLKERKEGAFVPFVTLGDPGIEQSLKIIDTLIEAGADALELGIPFSDPLADGPTIQNATLRAFAAGVTPAQCFEMLALIRQKHPTIPIGLLMYANLVFNKGIDEFYAQCEKVGVDSVLVADVPVEESAPFRQAALRHNVAPIFICPPNADDDLLRQIASYGRGYTYLLSRAGVTGAENRAALPLNHLVAKLKEYNAAPPLQGFGISAPDQVKAAIDAGAAGAISGSAIVKIIEQHINEPEKMLAALKVFVQPMKAATRS

Variants of: B1
Settings: Escherichia coli (strain K12), reversible: yes, structure 1WQ5, whole UniProt chain shown
[1] = pH 7, 25 °C, GdnHCl, CD, Potassium phosphate 10 mM
[2] = pH 7, 25 °C, GdnHCl, CD, Potassium phosphate 10 mM, transition: 3
[3] = pH 9, Thermal, DSC, Sodium tetraborate 1 mM
[4] = pH 9, 54.1 °C, Thermal, DSC, Sodium tetraborate 1 mM, EDTA 1 mM

Variant | ddG of mutation (higher = less stable) [1] | unfolding free energy [1] | unfolding free energy [2] | ddG of mutation (higher = less stable) [2] | Tm [3] | change of melting temperature, mutant - wild type (higher = more stable) [3] | heat capacity change of unfolding [3] | unfolding enthalpy (calorimetric) [3] | ddG of mutation (higher = less stable) [4] | heat capacity change of unfolding [4]
MERYESLFAQLKERKEGAFVPFVTLGDGGIEQSLKIIDTLIEAGADALELGIPFSDPLADGPTIQNATLRAFAAGVTPAQCFEMLALIRQKHPTIPIGLLMYANLVFNKGIDEFYAQCEKVGVDSVLVADVPVEESAPFRQAALRHNVAPIFICPPNADDDLLRQIASYGRGYTYLLSRAGVTGAENRAALPLNHLVAKLKEYNAAPPLQGFGISAPDQVKAAIDAGAAGAISGSAIVKIIEQHINEPEKMLAALKVFVQPMKAATRS [P28G] | 1.6 kcal/mol | 7.2 kcal/mol | 2.3 kcal/mol and 4.9 kcal/mol | – | – | – | – | – | – | –
MERYESLFAQLKERKEGAFVPFVTLGDAGIEQSLKIIDTLIEAGADALELGIPFSDPLADGPTIQNATLRAFAAGVTPAQCFEMLALIRQKHPTIPIGLLMYANLVFNKGIDEFYAQCEKVGVDSVLVADVPVEESAPFRQAALRHNVAPIFICPPNADDDLLRQIASYGRGYTYLLSRAGVTGAENRAALPLNHLVAKLKEYNAAPPLQGFGISAPDQVKAAIDAGAAGAISGSAIVKIIEQHINEPEKMLAALKVFVQPMKAATRS [P28A] | 2.5 kcal/mol | 6.3 kcal/mol | 2.2 kcal/mol and 4.1 kcal/mol | – | – | – | – | – | – | –
MERYESLFAQLKERKEGAFVPFVTLGDPGIEQSLKIIDTLIEAGADALELGIPFSDPLADGPTIQNATLRAFAAGVTPAQCFEMLALIRQKHPTIPIGLLMYANLVFNKGIDEFYAQCEKVGVDSVLVADVPVEESAPFRQAALRHNVAPIFICPPNADDDLLRQIASYGRGYTYLLSRAGVTGAENRAALPLNHLVAKLKEYNAAAPLQGFGISAPDQVKAAIDAGAAGAISGSAIVKIIEQHINEPEKMLAALKVFVQPMKAATRS [P207A] | 1.8 kcal/mol | 7 kcal/mol | 2.4 kcal/mol | 2.2 kcal/mol | 47.4 °C | -6.7 °C | 4.9 kcal/mol/K | 95 kcal/mol | – | –
MERYESLFAQLKERKEGAFVPFVTLGDPGIEQSLKIIDTLIEAGADALELGIPFSDALADGPTIQNATLRAFAAGVTPAQCFEMLALIRQKHPTIPIGLLMYANLVFNKGIDEFYAQCEKVGVDSVLVADVPVEESAPFRQAALRHNVAPIFICPPNADDDLLRQIASYGRGYTYLLSRAGVTGAENRAALPLNHLVAKLKEYNAAPPLQGFGISAPDQVKAAIDAGAAGAISGSAIVKIIEQHINEPEKMLAALKVFVQPMKAATRS [P57A] | – | – | – | – | 54 °C | -0.1 °C | 4.7 kcal/mol/K | 121 kcal/mol | 0.04 kcal/mol | 4.7 kcal/mol/K
MERYESLFAQLKERKEGAFVPFVTLGDPGIEQSLKIIDTLIEAGADALELGIPFSDPLADGATIQNATLRAFAAGVTPAQCFEMLALIRQKHPTIPIGLLMYANLVFNKGIDEFYAQCEKVGVDSVLVADVPVEESAPFRQAALRHNVAPIFICPPNADDDLLRQIASYGRGYTYLLSRAGVTGAENRAALPLNHLVAKLKEYNAAPPLQGFGISAPDQVKAAIDAGAAGAISGSAIVKIIEQHINEPEKMLAALKVFVQPMKAATRS [P62A] | – | – | – | – | – | – | – | – | 0.52 kcal/mol | 4.9 kcal/mol/K
MERYESLFAQLKERKEGAFVPFVTLGDPGIEQSLKIIDTLIEAGADALELGIPFSDPLADGPTIQNATLRAFAAGVTPAQCFEMLALIRQKHPTIAIGLLMYANLVFNKGIDEFYAQCEKVGVDSVLVADVPVEESAPFRQAALRHNVAPIFICPPNADDDLLRQIASYGRGYTYLLSRAGVTGAENRAALPLNHLVAKLKEYNAAPPLQGFGISAPDQVKAAIDAGAAGAISGSAIVKIIEQHINEPEKMLAALKVFVQPMKAATRS [P96A] | – | – | – | – | 47.8 °C | -6.3 °C | 3.6 kcal/mol/K | 113 kcal/mol | 2 kcal/mol | 3.6 kcal/mol/K
MERYESLFAQLKERKEGAFVPFVTLGDPGIEQSLKIIDTLIEAGADALELGIPFSDPLADGPTIQNATLRAFAAGVTPAQCFEMLALIRQKHPTIPIGLLMYANLVFNKGIDEFYAQCEKVGVDSVLVADVAVEESAPFRQAALRHNVAPIFICPPNADDDLLRQIASYGRGYTYLLSRAGVTGAENRAALPLNHLVAKLKEYNAAPPLQGFGISAPDQVKAAIDAGAAGAISGSAIVKIIEQHINEPEKMLAALKVFVQPMKAATRS [P132A] | – | – | – | – | 51.5 °C | -2.6 °C | 4.8 kcal/mol/K | 121 kcal/mol | 0.92 kcal/mol | 4.8 kcal/mol/K
MERYESLFAQLKERKEGAFVPFVTLGDPGIEQSLKIIDTLIEAGADALELGIPFSDPLADGPTIQNATLRAFAAGVTPAQCFEMLALIRQKHPTIPIGLLMYANLVFNKGIDEFYAQCEKVGVDSVLVADVGVEESAPFRQAALRHNVAPIFICPPNADDDLLRQIASYGRGYTYLLSRAGVTGAENRAALPLNHLVAKLKEYNAAPPLQGFGISAPDQVKAAIDAGAAGAISGSAIVKIIEQHINEPEKMLAALKVFVQPMKAATRS [P132G] | 0.6 kcal/mol | 8.2 kcal/mol | 3.6 kcal/mol and 4.6 kcal/mol | – | 51.8 °C | -2.3 °C | 5.1 kcal/mol/K | 117 kcal/mol | 0.78 kcal/mol | 5.1 kcal/mol/K
